The record followed here is patent publication US5861254.

The target of data set [1] is T1, L-selectin-IgG1 Fc fusion (LS-Rg) (Homo sapiens) (UniProt P14151).
T1 sequence: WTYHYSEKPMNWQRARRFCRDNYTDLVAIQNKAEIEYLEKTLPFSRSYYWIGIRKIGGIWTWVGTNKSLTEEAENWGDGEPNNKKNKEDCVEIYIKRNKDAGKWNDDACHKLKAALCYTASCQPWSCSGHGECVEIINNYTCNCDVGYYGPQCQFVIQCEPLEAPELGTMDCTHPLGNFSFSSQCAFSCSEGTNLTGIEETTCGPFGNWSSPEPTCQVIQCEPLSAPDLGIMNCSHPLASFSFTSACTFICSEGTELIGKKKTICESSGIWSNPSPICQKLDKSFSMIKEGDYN
The data set can be described thus: SPR. To be noted: 2'-F pyrimidines, 2'-OH purines, SHMCK buffer with Ca and Mg.

Data set [2] addresses T1, L-selectin-IgG1 Fc fusion (LS-Rg) (Homo sapiens). Kind of data set: filter. Particulars: 2'-F pyrimidines, 2'-OH purines.

With “UCGGGCGGAAUUCAGGNNNNNNNNNNNNNNNNNNNNNNNNNNNNNNCCGCAUCGUCCUCCC [Flow Cell SELEX Rnd 2 pool]”, the Kd in data set [1] (ka 1.7e4, kd 1.8e-3) was found to be 110 nM.
Regarding “UCGGGCGGAAUUCAGGNNNNNNNNNNNNNNNNNNNNNNNNNNNNNNCCGCAUCGUCCUCCC [Flow Cell SELEX Rnd 3 pool]”, the dissociation constant (Kd) was 0.16 nM in data set [2] (nitrocellulose filter binding, pool plateau below 20% bound in final mixtures) and 39 nM in data set [1] (ka 4.9e4, kd 1.9e-3).
Sequence “UCGGGCGGAAUUCAGGNNNNNNNNNNNNNNNNNNNNNNNNNNNNNNCCGCAUCGUCCUCCC [Flow Cell SELEX Rnd 4 pool]” showed a Kd in data set [1] (ka 7.5e4, kd 1.8e-3) of 24 nM.
On to “UCGGGCGGAAUUCAGGNNNNNNNNNNNNNNNNNNNNNNNNNNNNNNCCGCAUCGUCCUCCC [Flow Cell SELEX Rnd 5 pool]”, for which the Kd in data set [2] (only slightly improved over round 3 (160 pM), plateau below 20% bound) was under 1 nM; in data set [1] (ka 3.7e5, kd 1.5e-3) it was 4.1 nM.

As a reminder, the Kd is the equilibrium constant for the complex coming apart.
